According to PMC6506529, “Structural Insights into Catalytic Versatility of the Flavin-dependent Hydroxylase (HpaB) from Escherichia coli” (Scientific Reports, 2019):

Experiments:
Details in all cases: apparent, 10 μM FAD, 1 mM NADH, 500 nM HpaC, 20 mM KPi pH 7.0, 30 °C
[1] = system: O=C(O)/C=C/c1ccc(O)cc1; experiment: HPLC of product and substrate; Michaelis-Menten fit; type: biochemical, Escherichia coli
Source text: (§1) HPLC of product and substrate; Michaelis-Menten fit on EcHpaB

[2] = system: O=C(O)/C=C/c1ccc(O)cc1; experiment: purified protein; type: biochemical, Escherichia coli
Source text: as §1

[3] = system: O=C(O)/C=C/c1ccc(O)cc1; experiment: purified protein; type: biochemical, Escherichia coli; remark: listed apart in the source
[4] = system: O=c1ccc2ccc(O)cc2o1; experiment: purified protein
[5] = substrate: O=C1C[C@@H](c2ccc(O)cc2)Oc2cc(O)cc(O)c21; experiment: purified protein
[6] = substrate: O=c1ccc2ccc(O)cc2o1; experiment: purified protein; remark: listed apart in the source
[7] = substrate: Oc1ccc(/C=C/c2cc(O)cc(O)c2)cc1; experiment: purified protein
[8] = substrate: O=C(O)/C=C/c1ccc(O)cc1; experiment: HPLC of product and substrate; Michaelis-Menten fit; type: biochemical, Escherichia coli; remark: listed apart in the source

“EcHpaB (Escherichia coli; A211D/E216M/F208A/G207M/G209M/G215A/M214G/N217V/Q212G/S210V/V213S)” showed a Km [1] of 235.3 ± 52.5 µM, a kcat [1] of 0.375 ± 0.0217 s⁻¹ and a kcat/Km [1] of 1560 M⁻¹ s⁻¹.

For “EcHpaB (Escherichia coli; A211D/E216M/F208A/G207M/G209M/G215A/N217V/S210V)”, the Km [2] was 210.8 ± 85.3 µM, the kcat [2] was 0.512 ± 0.0617 s⁻¹ and the kcat/Km [2] was 2400 M⁻¹ s⁻¹.

For “EcHpaB (Escherichia coli; A211D/E216S/F208S/M214S/N217D/Q212L/V213G)”, the Km [3] was 132.1 ± 29.1 µM, the kcat [3] was 0.365 ± 0.0167 s⁻¹ and the kcat/Km [3] was 2800 M⁻¹ s⁻¹. It also gave a Km [4] of 176.9 ± 35.9 µM, a kcat [4] of 0.348 s⁻¹ and a kcat/Km [4] of 2000 M⁻¹ s⁻¹.

“EcHpaB (Escherichia coli; A211D/F208A/G207M/G209M/S210V)” showed a Km [3] of 387.9 ± 32.7 µM, a kcat [3] of 0.183 ± 0.00667 s⁻¹ and a kcat/Km [3] of 470 M⁻¹ s⁻¹.

With “EcHpaB (Escherichia coli; E216M/G215A/N217V)” the Km [1] was 235.6 ± 40.2 µM, the kcat [1] was 0.497 ± 0.0217 s⁻¹ and the kcat/Km [1] was 2100 M⁻¹ s⁻¹.

B1: EcHpaB (Escherichia coli) (protein)
chain: MKPEDFRASTQRPFTGEEYLKSLQDGREIYIYGERVKDVTTHPAFRNAAASVAQLYDALHKPEMQDSLCWNTDTGSGGYTHKFFRVAKSADDLRHERDAIAEWSRLSYGWMGRTPDYKAAFGCALGGTPGFYGQFEQNARNWYTRIQETGLYFNHAIVNPPIDRHLPTDKVKDVYIKLEKETDAGIIVSGAKVVATNSALTHYNMIGFGSAQVMGENPDFALMFVAPMDADGVKLISRASYEMVAGATGSPYDYPLSSRFDENDAILVMDNVLIPWENVLLYRDFDRCRRWTMEGGFARMYPLQACVRLAVKLDFITALLKKSLECTGTLEFRGVQADLGEVVAWRNTFWALSDSMCSEATPWVNGAYLPDHAALQTYRVLAPMAYAKIKNIIERNVTSGLIYLPSSARDLNNPQIDQYLAKYVRGSNGMDHVQRIKILKLMWDAIGSEFGGRHELYEINYSGSQDEIRLQCLRQAQSSGNMDKMMAMVDRCLSEYDQNGWTVPHLHNNDDINMLDKLLK
notes: (α2)2 tetramer; expressed in E. coli BW25113 (F') from pZE12-luc, purified; assayed with separate purified HpaC reductase
B1 gave a Km [5] of 349.8 ± 77.6 µM, a kcat [5] of 0.15 s⁻¹ and a kcat/Km [5] of 400 M⁻¹ s⁻¹. For the same molecule, the Km [6] was 217.0 ± 60.6 µM, the kcat [6] was 0.418 s⁻¹ and the kcat/Km [6] was 1900 M⁻¹ s⁻¹. It also gave a Km [7] of 174.3 ± 17.9 µM, a kcat [7] of 0.437 s⁻¹ and a kcat/Km [7] of 2500 M⁻¹ s⁻¹. The Km [8] was 137.6 ± 21.0 µM, the kcat [8] was 0.387 ± 0.0117 s⁻¹ and the kcat/Km [8] was 2800 M⁻¹ s⁻¹.
